This is an account of results in PMC8145246 (Toxins, 2021).

B1: MazE-mt1 α3 peptide (Thr42-Gly58) (peptide)
peptide: TLEDDYANAWQEWSAAG
B2: MazF-mt1 toxin (M. tb), purified protein (enzyme)
chain: MMRRGEIWQVDLDPARGSEANNQRPAVVVSNDRANATATRLGRGVITVVPVTSNIAKVYPFQVLLSATTTGLQVDCKAQAEQIRSIATERLLRPIGRVSAAELAQLDEALKLHLDLWS

Data set [1] deals with B2. Nature of the data set: crystal structure. To be noted: both partners purified.
The data set “crystal structure” deals with the molecule itself. Nature of the data set: crystal structure.

Take B1: the binding result in data set [1] is given as “binds”. On to B2, for which the binding result in the data set “crystal structure” is listed as “binds”.
